Source: patent US11260098B2, “Method for suppressing obesity or development of obesity” (priority 2014, dated 2022)

What was measured:
mice = assay: Conditioned taste aversion preference test; assay type: in vivo; settings: i.p. 0.5 ml, dose giving about 1/2 food suppression (1/4 dilution, 1/16 dilution, undiluted filtrate), FIG. 14
Protocol: 8. […] To define whether the appetite-suppressing effects induced by the undiluted solution of liquid component, the residual liquid containing the >3,000 component, and the filtrated liquid containing the <3,000 component were non-specific, a conditioned taste aversive test (a conditioned taste aversion preference test) was carried out in mice. For 5 days, each of mice was adapted to two bottles containing water, allowing to the drinking schedule of 2 hours per day (10:00 am to 12:00). On Day 6 of the test, each mice was allowed to drink water for 30 minutes followed by installation of 2 bottles added with saccharine solution (0.15%). Thereafter, saline, the liquid components or lithium chloride (molecular weight: 42.4 daltons) solution, each in an amount of 0.5 ml, was intraperitoneally administered to mice (n=5), and the conditions were set up as the aversion learning of the taste against saccharine solution. Subsequently, each of mice was subjected to drink for 90 minutes using 2 botties with water. […] On Day 8 of the test, the animals were allowed to drink for 30 minutes using 2 bottles with either water or saccharine solution, and the preference ratio for drinking of saccharine solution (the amounts of saccharine solution intake÷the amounts of entire water intake for 2 bottles) was calculated. […] The data are expressed as mean value±standard deviation. […]

rat = settings: centrally administered to the rat ventricle; cited from earlier work
[1] = intraperitoneal administration; cited from earlier work

[Cl-].[Li+] [lithium chloride]
preference intake of saccharine solution (mice): significantly suppressed

B1: nesfatin-1: satiety molecule generated by processing of the secretory protein nesfatin; human nesfatin-1 9,695 daltons (protein, UniProt P80303 25-106, looked up)
Nesfatin-1: VPIDIDKTKVQNIHPVESAKIEPPDTGLYYDEYLKQVIDVLETDKHFREKLQKADIEEIKSGRLSKELDLVSHHVRTKLDEL
modifications: Nesfatin-1
notes: satiety molecule generated by processing of the secretory protein nesfatin; human nesfatin-1 9,695 daltons
food intake (rat): significantly suppressed | appetite suppression [1]: induced appetite suppression in a dose-dependent manner
